Assay results taken from the supplement of paper PMC11811203.

B1: THAP1; numbered along this chain (parent)
chain: MVQSCSAYGCKNRYDKDKPVSFHKFPLTRPSLCKEWEAAVRRKNFKPTKYSSICSEHFTPDCFKRECNNKLLKENAVPTIFLCTEPHDKKEDLLEPQEQLPPPPLPPPVSQVDAAIGLLMPPLQTPVNLSVFCDHNYTVEDTMHQRKRIHQLEQQVEKLRKKLKTAQQRCRRQERQLEKLKEVVHFQKEKDDVSERGYVILPNDYFEIVEVPA

Variants of: B1
Test: THAP1 transcriptional activity (GFP+/GFP- enrichment relative to wild-type constructs) (ratio to WT); higher = more THAP1 activity (PSMB5 reporter activation)
Conditions: with PSMB5 promoter-GFP reporter
Description: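 Deep mutational scan of human THAP1. Site-saturation single amino acid variant library (residues 2-213) was expressed by lentivirus at MOI ~0.3 in THAP1-knockout HEK-293T cells carrying an endogenous PSMB5 promoter-GFP knock-in reporter. Five days post-transduction, BFP+ cells were FACS-sorted into GFP dim and GFP bright populations and variants were counted by Illumina sequencing. Activity is the GFP-bright/GFP-dim read fold change, mean of 2 replicates, divided by the mean fold change of wild-type (synonymous) constructs in the same screen pool; WT = 1.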

Variant | THAP1 transcriptional activity
MVMSCSAYGCKNRYDKDKPVSFHKFPLTRPSLCKEWEAAVRRKNFKPTKYSSICSEHFTPDCFKRECNNKLLKENAVPTIFLCTEPHDKKEDLLEPQEQLPPPPLPPPVSQVDAAIGLLMPPLQTPVNLSVFCDHNYTVEDTMHQRKRIHQLEQQVEKLRKKLKTAQQRCRRQERQLEKLKEVVHFQKEKDDVSERGYVILPNDYFEIVEVPA [Q3M] | 0.486
MVNSCSAYGCKNRYDKDKPVSFHKFPLTRPSLCKEWEAAVRRKNFKPTKYSSICSEHFTPDCFKRECNNKLLKENAVPTIFLCTEPHDKKEDLLEPQEQLPPPPLPPPVSQVDAAIGLLMPPLQTPVNLSVFCDHNYTVEDTMHQRKRIHQLEQQVEKLRKKLKTAQQRCRRQERQLEKLKEVVHFQKEKDDVSERGYVILPNDYFEIVEVPA [Q3N] | 0.442
MVPSCSAYGCKNRYDKDKPVSFHKFPLTRPSLCKEWEAAVRRKNFKPTKYSSICSEHFTPDCFKRECNNKLLKENAVPTIFLCTEPHDKKEDLLEPQEQLPPPPLPPPVSQVDAAIGLLMPPLQTPVNLSVFCDHNYTVEDTMHQRKRIHQLEQQVEKLRKKLKTAQQRCRRQERQLEKLKEVVHFQKEKDDVSERGYVILPNDYFEIVEVPA [Q3P] | 0.186
MVRSCSAYGCKNRYDKDKPVSFHKFPLTRPSLCKEWEAAVRRKNFKPTKYSSICSEHFTPDCFKRECNNKLLKENAVPTIFLCTEPHDKKEDLLEPQEQLPPPPLPPPVSQVDAAIGLLMPPLQTPVNLSVFCDHNYTVEDTMHQRKRIHQLEQQVEKLRKKLKTAQQRCRRQERQLEKLKEVVHFQKEKDDVSERGYVILPNDYFEIVEVPA [Q3R] | 0.187
MVSSCSAYGCKNRYDKDKPVSFHKFPLTRPSLCKEWEAAVRRKNFKPTKYSSICSEHFTPDCFKRECNNKLLKENAVPTIFLCTEPHDKKEDLLEPQEQLPPPPLPPPVSQVDAAIGLLMPPLQTPVNLSVFCDHNYTVEDTMHQRKRIHQLEQQVEKLRKKLKTAQQRCRRQERQLEKLKEVVHFQKEKDDVSERGYVILPNDYFEIVEVPA [Q3S] | 0.278
MVTSCSAYGCKNRYDKDKPVSFHKFPLTRPSLCKEWEAAVRRKNFKPTKYSSICSEHFTPDCFKRECNNKLLKENAVPTIFLCTEPHDKKEDLLEPQEQLPPPPLPPPVSQVDAAIGLLMPPLQTPVNLSVFCDHNYTVEDTMHQRKRIHQLEQQVEKLRKKLKTAQQRCRRQERQLEKLKEVVHFQKEKDDVSERGYVILPNDYFEIVEVPA [Q3T] | 0.534
MVVSCSAYGCKNRYDKDKPVSFHKFPLTRPSLCKEWEAAVRRKNFKPTKYSSICSEHFTPDCFKRECNNKLLKENAVPTIFLCTEPHDKKEDLLEPQEQLPPPPLPPPVSQVDAAIGLLMPPLQTPVNLSVFCDHNYTVEDTMHQRKRIHQLEQQVEKLRKKLKTAQQRCRRQERQLEKLKEVVHFQKEKDDVSERGYVILPNDYFEIVEVPA [Q3V] | 0.563
MVWSCSAYGCKNRYDKDKPVSFHKFPLTRPSLCKEWEAAVRRKNFKPTKYSSICSEHFTPDCFKRECNNKLLKENAVPTIFLCTEPHDKKEDLLEPQEQLPPPPLPPPVSQVDAAIGLLMPPLQTPVNLSVFCDHNYTVEDTMHQRKRIHQLEQQVEKLRKKLKTAQQRCRRQERQLEKLKEVVHFQKEKDDVSERGYVILPNDYFEIVEVPA [Q3W] | 0.0989
MVYSCSAYGCKNRYDKDKPVSFHKFPLTRPSLCKEWEAAVRRKNFKPTKYSSICSEHFTPDCFKRECNNKLLKENAVPTIFLCTEPHDKKEDLLEPQEQLPPPPLPPPVSQVDAAIGLLMPPLQTPVNLSVFCDHNYTVEDTMHQRKRIHQLEQQVEKLRKKLKTAQQRCRRQERQLEKLKEVVHFQKEKDDVSERGYVILPNDYFEIVEVPA [Q3Y] | 0.149
MVQACSAYGCKNRYDKDKPVSFHKFPLTRPSLCKEWEAAVRRKNFKPTKYSSICSEHFTPDCFKRECNNKLLKENAVPTIFLCTEPHDKKEDLLEPQEQLPPPPLPPPVSQVDAAIGLLMPPLQTPVNLSVFCDHNYTVEDTMHQRKRIHQLEQQVEKLRKKLKTAQQRCRRQERQLEKLKEVVHFQKEKDDVSERGYVILPNDYFEIVEVPA [S4A] | 0.338
MVQCCSAYGCKNRYDKDKPVSFHKFPLTRPSLCKEWEAAVRRKNFKPTKYSSICSEHFTPDCFKRECNNKLLKENAVPTIFLCTEPHDKKEDLLEPQEQLPPPPLPPPVSQVDAAIGLLMPPLQTPVNLSVFCDHNYTVEDTMHQRKRIHQLEQQVEKLRKKLKTAQQRCRRQERQLEKLKEVVHFQKEKDDVSERGYVILPNDYFEIVEVPA [S4C] | 0.233
MVQDCSAYGCKNRYDKDKPVSFHKFPLTRPSLCKEWEAAVRRKNFKPTKYSSICSEHFTPDCFKRECNNKLLKENAVPTIFLCTEPHDKKEDLLEPQEQLPPPPLPPPVSQVDAAIGLLMPPLQTPVNLSVFCDHNYTVEDTMHQRKRIHQLEQQVEKLRKKLKTAQQRCRRQERQLEKLKEVVHFQKEKDDVSERGYVILPNDYFEIVEVPA [S4D] | 0.154
MVQECSAYGCKNRYDKDKPVSFHKFPLTRPSLCKEWEAAVRRKNFKPTKYSSICSEHFTPDCFKRECNNKLLKENAVPTIFLCTEPHDKKEDLLEPQEQLPPPPLPPPVSQVDAAIGLLMPPLQTPVNLSVFCDHNYTVEDTMHQRKRIHQLEQQVEKLRKKLKTAQQRCRRQERQLEKLKEVVHFQKEKDDVSERGYVILPNDYFEIVEVPA [S4E] | 0.103
MVQFCSAYGCKNRYDKDKPVSFHKFPLTRPSLCKEWEAAVRRKNFKPTKYSSICSEHFTPDCFKRECNNKLLKENAVPTIFLCTEPHDKKEDLLEPQEQLPPPPLPPPVSQVDAAIGLLMPPLQTPVNLSVFCDHNYTVEDTMHQRKRIHQLEQQVEKLRKKLKTAQQRCRRQERQLEKLKEVVHFQKEKDDVSERGYVILPNDYFEIVEVPA [S4F] | 0.177
MVQGCSAYGCKNRYDKDKPVSFHKFPLTRPSLCKEWEAAVRRKNFKPTKYSSICSEHFTPDCFKRECNNKLLKENAVPTIFLCTEPHDKKEDLLEPQEQLPPPPLPPPVSQVDAAIGLLMPPLQTPVNLSVFCDHNYTVEDTMHQRKRIHQLEQQVEKLRKKLKTAQQRCRRQERQLEKLKEVVHFQKEKDDVSERGYVILPNDYFEIVEVPA [S4G] | 0.254
MVQHCSAYGCKNRYDKDKPVSFHKFPLTRPSLCKEWEAAVRRKNFKPTKYSSICSEHFTPDCFKRECNNKLLKENAVPTIFLCTEPHDKKEDLLEPQEQLPPPPLPPPVSQVDAAIGLLMPPLQTPVNLSVFCDHNYTVEDTMHQRKRIHQLEQQVEKLRKKLKTAQQRCRRQERQLEKLKEVVHFQKEKDDVSERGYVILPNDYFEIVEVPA [S4H] | 0.111
MVQICSAYGCKNRYDKDKPVSFHKFPLTRPSLCKEWEAAVRRKNFKPTKYSSICSEHFTPDCFKRECNNKLLKENAVPTIFLCTEPHDKKEDLLEPQEQLPPPPLPPPVSQVDAAIGLLMPPLQTPVNLSVFCDHNYTVEDTMHQRKRIHQLEQQVEKLRKKLKTAQQRCRRQERQLEKLKEVVHFQKEKDDVSERGYVILPNDYFEIVEVPA [S4I] | 0.182
MVQKCSAYGCKNRYDKDKPVSFHKFPLTRPSLCKEWEAAVRRKNFKPTKYSSICSEHFTPDCFKRECNNKLLKENAVPTIFLCTEPHDKKEDLLEPQEQLPPPPLPPPVSQVDAAIGLLMPPLQTPVNLSVFCDHNYTVEDTMHQRKRIHQLEQQVEKLRKKLKTAQQRCRRQERQLEKLKEVVHFQKEKDDVSERGYVILPNDYFEIVEVPA [S4K] | 0.127
MVQLCSAYGCKNRYDKDKPVSFHKFPLTRPSLCKEWEAAVRRKNFKPTKYSSICSEHFTPDCFKRECNNKLLKENAVPTIFLCTEPHDKKEDLLEPQEQLPPPPLPPPVSQVDAAIGLLMPPLQTPVNLSVFCDHNYTVEDTMHQRKRIHQLEQQVEKLRKKLKTAQQRCRRQERQLEKLKEVVHFQKEKDDVSERGYVILPNDYFEIVEVPA [S4L] | 0.241
MVQMCSAYGCKNRYDKDKPVSFHKFPLTRPSLCKEWEAAVRRKNFKPTKYSSICSEHFTPDCFKRECNNKLLKENAVPTIFLCTEPHDKKEDLLEPQEQLPPPPLPPPVSQVDAAIGLLMPPLQTPVNLSVFCDHNYTVEDTMHQRKRIHQLEQQVEKLRKKLKTAQQRCRRQERQLEKLKEVVHFQKEKDDVSERGYVILPNDYFEIVEVPA [S4M] | 0.201
MVQNCSAYGCKNRYDKDKPVSFHKFPLTRPSLCKEWEAAVRRKNFKPTKYSSICSEHFTPDCFKRECNNKLLKENAVPTIFLCTEPHDKKEDLLEPQEQLPPPPLPPPVSQVDAAIGLLMPPLQTPVNLSVFCDHNYTVEDTMHQRKRIHQLEQQVEKLRKKLKTAQQRCRRQERQLEKLKEVVHFQKEKDDVSERGYVILPNDYFEIVEVPA [S4N] | 0.14
MVQPCSAYGCKNRYDKDKPVSFHKFPLTRPSLCKEWEAAVRRKNFKPTKYSSICSEHFTPDCFKRECNNKLLKENAVPTIFLCTEPHDKKEDLLEPQEQLPPPPLPPPVSQVDAAIGLLMPPLQTPVNLSVFCDHNYTVEDTMHQRKRIHQLEQQVEKLRKKLKTAQQRCRRQERQLEKLKEVVHFQKEKDDVSERGYVILPNDYFEIVEVPA [S4P] | 0.142
MVQQCSAYGCKNRYDKDKPVSFHKFPLTRPSLCKEWEAAVRRKNFKPTKYSSICSEHFTPDCFKRECNNKLLKENAVPTIFLCTEPHDKKEDLLEPQEQLPPPPLPPPVSQVDAAIGLLMPPLQTPVNLSVFCDHNYTVEDTMHQRKRIHQLEQQVEKLRKKLKTAQQRCRRQERQLEKLKEVVHFQKEKDDVSERGYVILPNDYFEIVEVPA [S4Q] | 0.114
MVQRCSAYGCKNRYDKDKPVSFHKFPLTRPSLCKEWEAAVRRKNFKPTKYSSICSEHFTPDCFKRECNNKLLKENAVPTIFLCTEPHDKKEDLLEPQEQLPPPPLPPPVSQVDAAIGLLMPPLQTPVNLSVFCDHNYTVEDTMHQRKRIHQLEQQVEKLRKKLKTAQQRCRRQERQLEKLKEVVHFQKEKDDVSERGYVILPNDYFEIVEVPA [S4R] | 0.164
MVQTCSAYGCKNRYDKDKPVSFHKFPLTRPSLCKEWEAAVRRKNFKPTKYSSICSEHFTPDCFKRECNNKLLKENAVPTIFLCTEPHDKKEDLLEPQEQLPPPPLPPPVSQVDAAIGLLMPPLQTPVNLSVFCDHNYTVEDTMHQRKRIHQLEQQVEKLRKKLKTAQQRCRRQERQLEKLKEVVHFQKEKDDVSERGYVILPNDYFEIVEVPA [S4T] | 0.966
MVQVCSAYGCKNRYDKDKPVSFHKFPLTRPSLCKEWEAAVRRKNFKPTKYSSICSEHFTPDCFKRECNNKLLKENAVPTIFLCTEPHDKKEDLLEPQEQLPPPPLPPPVSQVDAAIGLLMPPLQTPVNLSVFCDHNYTVEDTMHQRKRIHQLEQQVEKLRKKLKTAQQRCRRQERQLEKLKEVVHFQKEKDDVSERGYVILPNDYFEIVEVPA [S4V] | 0.187
MVQWCSAYGCKNRYDKDKPVSFHKFPLTRPSLCKEWEAAVRRKNFKPTKYSSICSEHFTPDCFKRECNNKLLKENAVPTIFLCTEPHDKKEDLLEPQEQLPPPPLPPPVSQVDAAIGLLMPPLQTPVNLSVFCDHNYTVEDTMHQRKRIHQLEQQVEKLRKKLKTAQQRCRRQERQLEKLKEVVHFQKEKDDVSERGYVILPNDYFEIVEVPA [S4W] | 0.171
MVQYCSAYGCKNRYDKDKPVSFHKFPLTRPSLCKEWEAAVRRKNFKPTKYSSICSEHFTPDCFKRECNNKLLKENAVPTIFLCTEPHDKKEDLLEPQEQLPPPPLPPPVSQVDAAIGLLMPPLQTPVNLSVFCDHNYTVEDTMHQRKRIHQLEQQVEKLRKKLKTAQQRCRRQERQLEKLKEVVHFQKEKDDVSERGYVILPNDYFEIVEVPA [S4Y] | 0.123
